In patent publication US20230136301A1, “Corticosteriod Reduction in Treatment with Anti-CD38 Antibody” (Janssen Biotech, Inc., priority 2021, published 2023):
“Also recorded” adds a separate entry of the source.

Tests used:
patients with RRMM [1] = test: PAVO Part 3: immunogenicity (anti-daratumumab and anti-rHuPH20 antibodies); assay type: in vivo, human
Experimental: For evaluation of immunogenicity, anti-daratumumab antibodies in serum and anti-rHuPH20 antibodies in plasma were assessed pre-dose on Cycle 1 Day 1, Cycle 1 Day 15, Cycle 2 Day 22, Cycle 4 Day 1 and 4- and 8-weeks post-treatment. The presence of anti-daratumumab and/or anti-rHuPH20 antibodies was assessed for classification as neutralizing antibodies.

[2] = test system: patients with multiple myeloma; conditions: COLUMBA, cited from earlier work
patients with RRMM [3] = conditions: in vivo
patients with RRMM [4] = conditions: DARA MD 1,800 mg; PAVO Part 1; median follow-up 8.3 months; cited from earlier work
patients with RRMM [5] = test: PAVO Part 1: DARA MD safety and efficacy

**Q.** With “daratumumab: human IgG1/κ anti-CD38 monoclonal antibody; heavy chain SEQ ID NO:12, light chain SEQ ID NO:13” as the molecule, how does the “Patients positive for anti-daratumumab antibodies” value (patients with RRMM [1]; daratumumab immunogenicity-evaluable n=41) read?
**A.** no patient tested positive; also recorded: no patients evaluable for daratumumab immunogenicity were positive

**Q.** With “DARA IV: daratumumab 16 mg/kg given by intravenous infusion” as the molecule, how does the “Median duration of response” value ([2]; follow-up 7.5 months) read?
**A.** not reached

**Q.** And the Overall response rate ([2]; median follow-up 7.5 months)?
**A.** 37%

**Q.** Which “Serious TEAEs in SOC Infections and infestations” value (patients with RRMM [3]) does the source give for “DARA MD: mix-and-deliver formulation of daratumumab (20 mg/mL) and rHuPH20 given subcutaneously by syringe pump” here?
**A.** 17.8%

**Q.** And the “TEAEs in SOC Infections and infestations” value (patients with RRMM [3])?
**A.** 71.1%

**Q.** And the ORR (patients with RRMM [4])?
**A.** 42.2%

**Q.** And the “Anemia, TEAE of Grade >3” value (patients with RRMM [5])?
**A.** 15.6%

**Q.** And the “Serious TEAEs in SOC General disorders and administration site conditions” value (patients with RRMM [5])?
**A.** 6.7%

**Q.** What about the “TEAEs in SOC General disorders and administration site conditions” value (patients with RRMM [5]) of the same molecule?
**A.** 71.1%

B1: rHuPH20: recombinant hyaluronidase having the amino acid sequence of SEQ ID NO: 22 (protein, listed as Homo sapiens)
chain: LNFRAPPVIPNVPFLWAWNAPSEFCLGKFDEPLDMSLFSFIGSPRINATGQGVTIFYVDRLGYYPYIDSITGVTVNGGIPQKISLQDHLDKAKKDITFYMPVDNLGMAVIDWEEWRPTWARNWKPKDVYKNRSIELVQQQNVQLSLTEATEKAKQEFEKAGKDFLVETIKLGKLLRPNHLWGYYLFPDCYNHHYKKPGYNGSCFNVEIKRNDDLSWLWNESTALYPSIYLNTQQSPVAATLYVRNRVREAIRVSKIPDAKSPLPVFAYTRIVFTDQVLKFLSQDELVYTFGETVALGASGIVIWGTLSIMRSMKSCLLLDNYMETILNPYIINVTLAAKMCSQVLCQEQGVCIRKNWNSSDYLHLNPDNFAIQLEKGGKFTVRGKPTLEDLEQFSEKFYCSCYSTLSCKEKADVKDTDAVDVCIADGVCIDAFLKPPMETEEPQIFY
**Q.** Which “Patients positive for treatment-emergent anti-rHuPH20 antibodies” value (patients with RRMM [1]; 1-week taper) does the source give for B1 here?
**A.** 1 (9.1%) n (%)

**Q.** What about the “Patients positive for treatment-emergent anti-rHuPH20 antibodies” value (patients with RRMM [1]; 2-week taper) of the same molecule?
**A.** 3 (20.0%) n (%)

**Q.** What about the “Patients positive for treatment-emergent anti-rHuPH20 antibodies” value (patients with RRMM [1]; 3-week taper) of the same molecule?
**A.** 6 (40.0%) n (%)

**Q.** What about the “Neutralizing anti-rHuPH20 antibodies” value (patients with RRMM [1]; all cohorts) of the same molecule?
**A.** None of the anti-rHuPH20 antibodies were neutralizing antibodies
